# Measurements: article PMC5009729 (Nucleic Acids Research, 2016)
# B1: Cse2 (natural protein)
# chain: MADEIDAMALYRAWQQLDNGSCAQIRRVSEPDELRDIPAFYRLVQPFGWENPRHQQALLRMVFCLSAGKNVIRHQDKKSEQTTGISLGRALANSGRINERRIFQLIRADRTADMVQLRRLLTHAEPVLDWPLMARMLTWWGKRERQQLLEDFVLTTNKNA
# Biological target: the molecule itself
# Assay: native MS
protein,measurement,value
B1,binding result,binds
